± gives the uncertainty stated by the source.
Experiment: self-splicing fitness, log relative to wild type (ln ratio); higher = more splicing; Tetrahymena group I intron in knt gene, E. coli kanamycin selection, DiMSum; sequences stand for … in CUCUCU…GGAGGGAAAAGUUAUCAGGCAUGCACCUGGUAGCUAGUCUUUAAACCAAUAGAUUGCAUCGGUUUAAAAGGCAAGACCGUCAAAUUGCGGGAAAGGGGUCAACAGCCGUUCAGUACCAAGUCUCAGGGGAAACUUUGAGAUGGCCUUGCAAAGGGUAUGGUAAUAAGCUGACGGACAUGGUCCUAACCACGCAGCCAAGUCCUAAGUCAACAGAUCUUCUGUUGAUAUGGAUGCAGUUCACAGACUAAAUGUCGGUCGGGGAAGAUGUAUUCUUCUCAUAAGAUAUAGUCGGACCUCUCCUUAAUGGGAGCUAGCGGAUGAAGUGAUGCAACACUGGAGCCGCUGGGAACUAAUUUGUAUGCGAAAGUAUAUUGAUUAGUUUUGGAGUACUCGUGGUCG
Method in brief: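 Six replicate transformations of E. coli BL21(DE3) with a pET-22b(+) library were grown overnight at 37°C or 30°C. The library randomised all eight P1ex-region intron nucleotides, the intron lying in the knt kanamycin-resistance gene, and plates were LB agar with or without 25 μg/mL kanamycin plus 100 μg/mL carbenicillin, 50 μM IPTG and 0.2% rhamnose. Pooled colonies were amplicon-sequenced on an Illumina HiSeq 2500, and fitness is the DiMSum error-weighted combination of wild-type-normalised replicate fold changes, kanamycin versus none.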

Sequence	self-splicing fitness (ln) (30 °C)	self-splicing fitness (ln) (37 °C)
UGAUAGCAAUAUUACGUAAU	-4.31 ± 0.46	-1.99 ± 0.21
UGAUAGCAAUAUUACGUGUC	-3.92 ± 0.28	-2.49 ± 0.26
UGAUAGCAAUAUUACGUUAA	-2.02 ± 0.21	-2.15 ± 0.26
UGAUAGCAAUAUUACGUUAC	-3.01 ± 0.31	-1.08 ± 0.22
UGCAAGCAAUAUUACGAAAG	-2.6 ± 0.12	-1.53 ± 0.13
UGCAAGCAAUAUUACGAACA	-1.23 ± 0.094	0.193 ± 0.13
UGCAAGCAAUAUUACGAACU	-0.489 ± 0.14	0.0308 ± 0.12
UGCAAGCAAUAUUACGACAG	-0.739 ± 0.066	-0.13 ± 0.092
UGCAAGCAAUAUUACGACCC	-2.05 ± 0.49	0.223 ± 0.43
UGCAAGCAAUAUUACGAGCC	-1.39 ± 0.11	-1.52 ± 0.14
UGCAAGCAAUAUUACGAUCG	-0.2 ± 0.07	0.647 ± 0.093
UGCAAGCAAUAUUACGAUUU	-1.16 ± 0.09	-1.05 ± 0.1
UGCAAGCAAUAUUACGCAAG	-2.59 ± 0.17	-3.02 ± 0.32
UGCAAGCAAUAUUACGCACU	-2.92 ± 0.13	-1.28 ± 0.1
UGCAAGCAAUAUUACGCAUU	-4.37 ± 0.27	-3.61 ± 0.26
UGCAAGCAAUAUUACGCGGA	-2.23 ± 0.12	-0.795 ± 0.12
UGCAAGCAAUAUUACGCUUA	-1.2 ± 0.092	-0.639 ± 0.092
UGCAAGCAAUAUUACGGAAA	-1.82 ± 0.17	-2.45 ± 0.22
UGCAAGCAAUAUUACGGCAU	-3.05 ± 0.29	-2.1 ± 0.19

Sequence	self-splicing fitness (ln) (30 °C)	self-splicing fitness (ln) (37 °C)
UGCAAGCAAUAUUACGGCCG	-0.266 ± 0.075	0.134 ± 0.099
UGCAAGCAAUAUUACGGCGA	-0.0647 ± 0.094	-0.21 ± 0.11
UGCAAGCAAUAUUACGGGGA	-3.21 ± 0.33	-1.32 ± 0.15
UGCAAGCAAUAUUACGGGGU	-3.13 ± 0.15	-2.75 ± 0.14
UGCAAGCAAUAUUACGGGUA	-0.497 ± 0.084	0.0384 ± 0.095
UGCAAGCAAUAUUACGGUAC	-4.35 ± 0.39	-2.38 ± 0.21
UGCAAGCAAUAUUACGGUCA	0.0812 ± 0.064	-0.169 ± 0.065
UGCAAGCAAUAUUACGUAGA	-1.35 ± 0.072	-0.944 ± 0.1
UGCAAGCAAUAUUACGUCGC	-2.86 ± 0.43	-2.36 ± 0.49
UGCAAGCAAUAUUACGUCGG	-2.03 ± 0.086	-0.943 ± 0.1
UGCAAGCAAUAUUACGUCUG	-1.34 ± 0.08	-0.432 ± 0.1
UGCAAGCAAUAUUACGUGAU	-3.33 ± 0.082	-2.13 ± 0.093
UGCAAGCAAUAUUACGUGCG	-2.86 ± 0.18	-1.94 ± 0.18
UGCAAGCAAUAUUACGUGUG	-2.69 ± 0.098	-2.81 ± 0.14
UGCAAGCAAUAUUACGUUAC	-2.91 ± 0.27	-2.41 ± 0.24
UGCCAGCAAUAUUACGAAGG	-3.59 ± 0.27	-2.6 ± 0.3
UGCCAGCAAUAUUACGAUAC	-3.95 ± 0.25	-2.29 ± 0.25
UGCCAGCAAUAUUACGAUUU	-4.1 ± 0.23	-1.54 ± 0.14
UGCCAGCAAUAUUACGCCAU	-3.3 ± 0.28	-2.48 ± 0.26
